Experiments:
[1] = target: HLA-B*18:01; experiment: IEDB peptide-MHC binding, purified MHC/competitive/radioactivity; filed as Kd, often an IC50 or EC50 that approximates it; ≥ and ≤ were set here for values at or beyond the usual limits of such assays
[2] = target: HLA-B*40:01; experiment: as above
[3] = target: HLA-B*40:02; experiment: as above
[4] = target: HLA-B*44:02; experiment: as above
[5] = target: HLA-B*44:03; experiment: as above
[6] = target: HLA-B*45:01; experiment: as above
[7] = target: HLA-B*15:17; experiment: IEDB peptide-MHC binding, purified MHC/direct/fluorescence; filed as Kd, often an IC50 or EC50 that approximates it; ≥ and ≤ were set here for values at or beyond the usual limits of such assays
[8] = target: HLA-B*57:01; experiment: as above
[9] = target: HLA-B*58:01; experiment: as above
[10] = target: HLA-B*46:01; experiment: IEDB peptide-MHC binding, purified MHC/competitive/fluorescence; filed as Kd, often an IC50 or EC50 that approximates it; ≥ and ≤ were set here for values at or beyond the usual limits of such assays; conditions: source organism: Brucella melitensis bv. 1 str. 16M
[11] = target: HLA-B*08:01; experiment: IEDB peptide-MHC binding, purified MHC/direct/fluorescence; filed as Kd, often an IC50 or EC50 that approximates it; ≥ and ≤ were set here for values at or beyond the usual limits of such assays
[12] = target: HLA-B*08:02; experiment: as above
[13] = target: HLA-A*01:01; experiment: as above
[14] = target: HLA-A*03:01; experiment: as above
[15] = target: HLA-B*07:02; experiment: as above
[16] = target: HLA-B*18:01; experiment: as above
[17] = target: HLA-B*27:05; experiment: as above
[18] = target: HLA-B*40:01; experiment: as above
[19] = target: HLA-B*44:02; experiment: as above
[20] = target: HLA-B*46:01; experiment: as above
[21] = target: HLA-B*48:01; experiment: as above; conditions: source organism: Mammarenavirus lassaense
[22] = target: HLA-A*02:01; experiment: as above
[23] = target: HLA-A*11:01; experiment: as above
[24] = target: HLA-A*26:01; experiment: as above
[25] = target: HLA-A*31:01; experiment: as above
[26] = target: HLA-A*69:01; experiment: as above
[27] = target: HLA-B*15:01; experiment: as above
[28] = target: HLA-A*03:01; experiment: IEDB peptide-MHC binding, purified MHC/competitive/fluorescence; filed as Kd, often an IC50 or EC50 that approximates it; ≥ and ≤ were set here for values at or beyond the usual limits of such assays
[29] = target: HLA-A*24:03; experiment: IEDB peptide-MHC binding, purified MHC/direct/fluorescence; filed as Kd, often an IC50 or EC50 that approximates it; ≥ and ≤ were set here for values at or beyond the usual limits of such assays; conditions: source organism: Influenza A virus (A/tiger/Thailand/CU-T6/04(H5N1))
[30] = source organism: Lymphocytic choriomeningitis virus (strain Armstrong)
[31] = source organism: SARS coronavirus Tor2
[32] = source organism: Lassa virus Josiah
[33] = source organism: Mammarenavirus brazilense
[34] = source organism: Mammarenavirus guanaritoense
[35] = source organism: Mammarenavirus lassaense
[36] = source organism: Brucella melitensis
[37] = source organism: Giardia lamblia ATCC 50803
[38] = source organism: Mammarenavirus juninense
[39] = source organism: Yersinia pestis
[40] = source organism: Yersinia pestis CA88-4125
[41] = source organism: Influenza A virus (A/tiger/Thailand/CU-T6/04(H5N1))
[42] = source organism: Influenza A virus(A/swine/Shandong/fZC/2003(H9N2))

ADQAIANGV
Kd [1, 30]: ≥ 33.8 µM
Kd [2, 30]: ≥ 73.5 µM
Kd [3, 30]: 3.33 µM
Kd [4, 30]: 14.9 µM
Kd [5, 30]: ≥ 30.2 µM
Kd [6, 30]: ≥ 20.7 µM

EELFYSYAT
Kd [1, 31]: 1.04 µM
Kd [2, 31]: 0.691 µM
Kd [3, 31]: 0.0246 µM
Kd [4, 31]: 0.278 µM
Kd [5, 31]: 0.169 µM
Kd [6, 31]: 0.00316 µM

FDAAVSGGL
Kd [1, 32]: ≥ 77.5 µM
Kd [2, 32]: ≥ 20 µM
Kd [3, 32]: 5.87 µM
Kd [4, 32]: ≥ 77.9 µM
Kd [5, 32]: ≥ 78.1 µM
Kd [6, 32]: ≥ 28.8 µM

GDNEIEYGF
Kd [1, 33]: 4.07 µM
Kd [2, 33]: 9.48 µM
Kd [3, 33]: 1.28 µM
Kd [4, 33]: 4.34 µM
Kd [5, 33]: 17 µM
Kd [6, 33]: 12.2 µM

GEKSRCYSL
Kd [1, 34]: ≥ 77.5 µM
Kd [2, 34]: 0.488 µM
Kd [3, 34]: 0.0147 µM
Kd [4, 34]: 2.05 µM
Kd [5, 34]: 11.9 µM
Kd [6, 34]: 1.24 µM

GEPKESTPM
Kd [1, 35]: ≥ 77.5 µM
Kd [2, 35]: 1.18 µM
Kd [3, 35]: 0.191 µM
Kd [4, 35]: 9.34 µM
Kd [5, 35]: ≥ 78.1 µM
Kd [6, 35]: ≥ 77.7 µM

GETALALLLL
Kd [1, 31]: ≥ 48.1 µM
Kd [2, 31]: 0.0161 µM
Kd [3, 31]: 0.0162 µM
Kd [4, 31]: 1.34 µM
Kd [5, 31]: 0.149 µM
Kd [6, 31]: 1.9 µM

IAASNLEQF
Kd [7, 36]: 0.0226 µM
Kd [8, 36]: 0.202 µM
Kd [9, 36]: 0.05 µM
Kd [10]: 0.0479 µM

IASMRRNYF
Kd ([11]; source organism: Influenza A virus (A/camel/Mongolia/1982(H1N1))): 0.401 µM
Kd ([12]; source organism: Influenza A virus (A/Taiwan/2/2006(H1N1))): 2.23 µM

IDNQKLSYL
Kd [1, 33]: ≥ 77.5 µM
Kd [2, 33]: ≥ 76.1 µM
Kd [3, 33]: 6.52 µM
Kd [4, 33]: ≥ 77.9 µM
Kd [5, 33]: ≥ 78.1 µM
Kd [6, 33]: 17.7 µM

ILNHKFCNL
Kd [13, 35]: ≥ 20 µM
Kd [14, 35]: ≥ 20 µM
Kd [15, 35]: ≥ 20 µM
Kd [11, 35]: 0.142 µM
Kd [16, 35]: ≥ 20 µM
Kd [17, 35]: ≥ 20 µM
Kd [18, 35]: ≥ 20 µM
Kd [19, 35]: ≥ 20 µM
Kd [20, 35]: ≥ 20 µM
Kd [21]: ≥ 20 µM
Kd [8, 35]: ≥ 20 µM
Kd [9, 35]: ≥ 20 µM

ISYTYNDNW
Kd [22, 37]: ≥ 20 µM
Kd [14, 37]: ≥ 20 µM
Kd [23, 37]: ≥ 20 µM
Kd [24, 37]: ≥ 20 µM
Kd [25, 37]: ≥ 20 µM
Kd [26, 37]: ≥ 20 µM
Kd [15, 37]: ≥ 20 µM
Kd [11, 37]: ≥ 20 µM
Kd [27, 37]: ≥ 20 µM
Kd [7, 37]: 0.0014 µM
Kd [17, 37]: ≥ 20 µM
Kd [18, 37]: ≥ 20 µM
Kd [19, 37]: ≥ 20 µM
Kd [8, 37]: 0.0641 µM
Kd [9, 37]: 0.0118 µM

KEGIVWVAT
Kd [1, 31]: ≥ 62.8 µM
Kd [2, 31]: 6.26 µM
Kd [3, 31]: 0.0296 µM
Kd [4, 31]: ≥ 20 µM
Kd [5, 31]: 12.3 µM
Kd [6, 31]: 0.0696 µM

KKKLRPRWL
Kd ([12]; source organism: dengue virus type 4): ≥ 20 µM

KLSSEQLSH
Kd [28, 37]: 0.0594 µM

LENAQPGLL
Kd [1, 34]: 10.7 µM
Kd [2, 34]: 1.03 µM
Kd [3, 34]: 0.182 µM
Kd [4, 34]: 6.08 µM
Kd [5, 34]: 13.8 µM
Kd [6, 34]: ≥ 48 µM

MDYLILKNL
Kd [1, 38]: ≥ 53.7 µM
Kd [2, 38]: ≥ 33.9 µM
Kd [3, 38]: 0.0185 µM
Kd [4, 38]: 11 µM
Kd [5, 38]: 2.74 µM
Kd [6, 38]: ≥ 33.2 µM

PEYFNSVCRL
Kd [1, 31]: ≥ 70.5 µM
Kd [2, 31]: 2.83 µM
Kd [3, 31]: 1.25 µM
Kd [4, 31]: ≥ 32.4 µM
Kd [5, 31]: 9.39 µM
Kd [6, 31]: ≥ 33.3 µM

QLKSRAAVL
Kd [13, 39]: ≥ 20 µM
Kd [14, 39]: ≥ 20 µM
Kd [23, 39]: ≥ 20 µM
Kd [25, 39]: ≥ 20 µM
Kd [26, 39]: ≥ 20 µM
Kd [11, 40]: 0.034 µM
Kd [12, 40]: 0.948 µM
Kd [16, 39]: ≥ 20 µM
Kd [17, 39]: ≥ 20 µM
Kd [18, 39]: ≥ 20 µM
Kd [19, 39]: ≥ 20 µM
Kd [20, 39]: ≥ 20 µM
Kd [8, 39]: ≥ 20 µM
Kd [9, 39]: ≥ 20 µM

RIHGLGFCY
Kd ([28]; source organism: Shigella boydii CDC 3083-94): 0.608 µM

RKKLKPRWL
Kd ([12]; source organism: Dengue virus 2 Thailand/16681/84): ≥ 20 µM

RMKWMMAMR
Kd ([28]; source organism: Influenza A virus (A/chicken/Fujian/25/00(H9N2))): 0.044 µM

RTKSISSR
Kd ([28]; source organism: Influenza A virus (A/swine/Quebec/192/81(H1N1))): ≥ 20 µM

RVSSFIRGKK
Kd ([28]; source organism: Influenza A virus (A/swine/Italy/2/1979(H1N1))): 0.0025 µM

SEGNATPGGY
Kd [1, 35]: 18.7 µM
Kd [2, 35]: ≥ 64.2 µM
Kd [3, 35]: ≥ 70.8 µM
Kd [4, 35]: 19.5 µM
Kd [5, 35]: 7.25 µM
Kd [6, 35]: ≥ 70 µM

TEFACVVAEA
Kd [1, 31]: 0.0608 µM
Kd [2, 31]: 1.51 µM
Kd [3, 31]: 0.0146 µM
Kd [4, 31]: 1.44 µM
Kd [5, 31]: 0.393 µM
Kd [6, 31]: 0.00898 µM

TYQWIIRNW
Kd [13, 41]: ≥ 20 µM
Kd [22, 41]: ≥ 20 µM
Kd [14, 41]: ≥ 20 µM
Kd [23, 41]: ≥ 20 µM
Kd [29]: 0.0025 µM
Kd [24, 42]: ≥ 20 µM
Kd [25, 41]: ≥ 20 µM
Kd [26, 41]: ≥ 20 µM
Kd [15, 41]: ≥ 20 µM
Kd [11, 41]: ≥ 20 µM
Kd [12, 42]: ≥ 20 µM
Kd [27, 41]: ≥ 20 µM
Kd [17, 41]: ≥ 20 µM
Kd [18, 41]: ≥ 20 µM
Kd [19, 41]: ≥ 20 µM
Kd [20, 41]: ≥ 20 µM
Kd [9, 41]: ≥ 10 µM

VEFHLDGEVL
Kd [1, 31]: 3.23 µM
Kd [2, 31]: 0.000877 µM
Kd [3, 31]: 0.14 µM
Kd [4, 31]: 3.76 µM
Kd [5, 31]: 0.935 µM
Kd [6, 31]: 6.95 µM

VENPDILRV
Kd [1, 31]: 9.07 µM
Kd [2, 31]: ≥ 21.8 µM
Kd [3, 31]: 1.27 µM
Kd [4, 31]: 5.14 µM
Kd [5, 31]: 0.25 µM
Kd [6, 31]: 0.474 µM

WEILKFLIT
Kd [1, 31]: 2.9 µM
Kd [2, 31]: 4.36 µM
Kd [3, 31]: 0.00209 µM
Kd [4, 31]: 9.58 µM
Kd [5, 31]: 1.45 µM
Kd [6, 31]: 4.99 µM

— the Immune Epitope Database (IEDB)
